From PMC12405487

How the values were obtained:
furin (human) [1] = biological target: furin (human) (UniProt P09958); assay: enzyme inhibition kinetics (fluorogenic substrate); condition 2: 50 mM Mes/NaOH pH 6.0, 300 mM NaCl, 2 mM CaCl2, 0.2% Triton X-100, 25 °C; substrate Ac-RR(Tle)KR-AMC; triplicates
furin (human) [2] = biological target: furin (human) (UniProt P09958); assay: enzyme inhibition kinetics (fluorogenic substrate); condition 3: 50 mM Hepes/NaOH pH 7.4, 300 mM NaCl, 2 mM CaCl2, 0.2% Triton X-100, 25 °C; substrate Ac-RR(Tle)KR-AMC; triplicates
[3] = biological target: furin (soluble, mature, active) (UniProt P09958); assay: NMR, 2D 1H-15N HMBC of histidine side chains as a function of pH (600 MHz); conditions: pH 6.3-7.4; 278 K (~5 °C); 150 mM NaCl; 50 mM NaH2PO4/Na2HPO4 at each adjusted pH
Sequence of furin (soluble, mature, active) (P09958 whole entry): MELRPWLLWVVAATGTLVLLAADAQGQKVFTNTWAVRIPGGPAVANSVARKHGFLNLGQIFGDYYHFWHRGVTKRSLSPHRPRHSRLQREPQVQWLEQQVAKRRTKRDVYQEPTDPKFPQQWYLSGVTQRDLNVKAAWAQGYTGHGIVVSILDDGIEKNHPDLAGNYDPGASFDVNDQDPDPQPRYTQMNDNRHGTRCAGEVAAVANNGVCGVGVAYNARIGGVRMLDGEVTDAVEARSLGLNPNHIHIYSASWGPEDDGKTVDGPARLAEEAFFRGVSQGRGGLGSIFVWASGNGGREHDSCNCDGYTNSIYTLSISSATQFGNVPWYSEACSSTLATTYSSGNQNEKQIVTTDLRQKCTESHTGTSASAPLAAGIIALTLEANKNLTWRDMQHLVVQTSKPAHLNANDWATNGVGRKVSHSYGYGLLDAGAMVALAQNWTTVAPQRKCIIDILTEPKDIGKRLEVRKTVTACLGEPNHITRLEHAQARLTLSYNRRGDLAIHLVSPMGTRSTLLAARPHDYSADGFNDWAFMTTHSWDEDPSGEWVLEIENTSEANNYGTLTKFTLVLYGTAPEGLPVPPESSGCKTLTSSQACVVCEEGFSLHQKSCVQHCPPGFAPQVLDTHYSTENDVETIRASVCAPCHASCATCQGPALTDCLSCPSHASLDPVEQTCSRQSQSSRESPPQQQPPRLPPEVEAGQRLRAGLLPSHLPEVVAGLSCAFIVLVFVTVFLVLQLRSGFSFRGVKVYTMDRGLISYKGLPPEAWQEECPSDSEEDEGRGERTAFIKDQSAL

His72 = His72 (UniProt position 72, HYLFKHKNHPR); assay: NMR; conditions: 278 K (~5 °C); 150 mM NaCl plus 50 mM sodium phosphate; 50 mM NaH2PO4/Na2HPO4, 150 mM NaCl. The pH was set by dialysis into buffer of the adjusted pH, not by direct acid addition.; Isolated (furin-free) folded prodomain, 0.2 mM
His75 = His75 (UniProt position 75, FKHKNHPRRSR); assay: NMR; conditions: 278 K (~5 °C); 150 mM NaCl plus 50 mM sodium phosphate; 50 mM NaH2PO4/Na2HPO4, 150 mM NaCl. The pH was set by dialysis into buffer of the adjusted pH, not by direct acid addition.; Isolated (furin-free) folded prodomain, 0.2 mM
His85 = His85 (UniProt position 85, RRSAFHITKRL); assay: NMR; conditions: 278 K (~5 °C); 150 mM NaCl plus 50 mM sodium phosphate; 50 mM NaH2PO4/Na2HPO4, 150 mM NaCl. The pH was set by dialysis into buffer of the adjusted pH, not by direct acid addition.; Isolated (furin-free) folded prodomain, 0.2 mM

Row | Ki (furin (human) [1]) | Ki (furin (human) [2]) | Molecule | also measured
1 | 2.2 nM | 0.56 nM | PC1/3-prodomain mutant M1 (R78A) (from UniProt P29120 28-110) (domain or fragment) | –
2 | 0.88 nM | 0.73 nM | PC1/3-prodomain mutant M2 ((77)A-R-S-A-A) (from UniProt P29120 28-110) (domain or fragment) | –
3 | – | 0.139 nM | PC1/3-prodomain mutant M5 ((77)R-K-S-A-R) (from UniProt P29120 28-110) (domain or fragment) | –
4 | – | – | PC1/3-prodomain, wild type (15N-labelled for NMR) | pKa, His72 of the PC1/3-prodomain (WT) [3]: 4.82 pH units; pKa, His75 of the PC1/3-prodomain (WT) [3]: 5.03 pH units; pKa, His85 of the PC1/3-prodomain (WT) [3]: 5.6 pH units
5 | – | – | Proprotein convertase 1/3 (PC1/3, neuroendocrine convertase 1) prodomain, wild type (Homo sapiens) | pKa (His72): 4.82; pKa (His75): 5.03; pKa (His85): 5.60
6 | 0.14 nM | 0.101 nM | PC1/3-prodomain combination mutant M10 (M5 with His72Leu) (domain or fragment) GKRQFVNEWAAEIPGGPEAASAIAEELGYDLLGQIGSLENHYLFKLKNHPRKSARSAFHITKRLSDDDRVIWAEQQYEKERSKR | –
